{
  "source": "paper PMC5112231",
  "assay_in_all_cases": "EMSA",
  "details_in_all_cases": "EMSA: binding buffer 100 mM Tris-HCl pH 8, 375 mM NaCl, 25 mM MgCl2, 5 mM DTT, 65% glycerol [sic]; about 1 nmol DNA in 20 ul, 25 C …",
  "key": {"[1]": {"biological_target": "T1, Lrp wild type (Salmonella Typhimurium 14028s) (UniProt A0A0F6AZA3)", "T1 sequence": "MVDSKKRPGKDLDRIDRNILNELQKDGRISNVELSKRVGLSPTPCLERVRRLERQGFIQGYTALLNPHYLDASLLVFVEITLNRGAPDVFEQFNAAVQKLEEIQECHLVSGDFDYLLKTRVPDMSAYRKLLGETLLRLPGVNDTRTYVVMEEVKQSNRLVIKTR"}, "[2]": {"biological_target": "T2, Lrp K36Q K36Q (Salmonella Typhimurium 14028s) (UniProt A0A0F6AZA3)", "T2 sequence": "T1 sequence with K36Q"}, "[3]": {"biological_target": "T3, Lrp K36R K36R (Salmonella Typhimurium 14028s) (UniProt A0A0F6AZA3)", "T3 sequence": "T1 sequence with K36R"}, "[4]": {"biological_target": "T4, Lrp K25Q K25Q (Salmonella Typhimurium 14028s) (UniProt A0A0F6AZA3)", "T4 sequence": "T1 sequence with K25Q"}},
  "note": "Changes are numbered by the printed parent chain.",
  "data": [
    {"sequence": "ACACAGTGGAGCAATAATAAAGAATGAGACCTCCCTGTTGACTGGCTATTTTGCGTAAGAGTAATAAATATGTGGAATATCCATTTCGCACCAACAAAAAAGAAATTTCTGATTAAGTAAAAACAATATGGATTATACCTGGTCTGATTTCTCGGAAAAGTCTTGCGAAATGCGAATTATGGATAGCGGGTAGGATATTCTG (double strand) [fimZ promoter]", "values": [
      {"measurement": "binding", "setting": "[1]", "result": "binds"},
      {"measurement": "binding", "setting": "[2]", "result": "binds more weakly"},
      {"measurement": "binding", "setting": "[3]", "result": "binds"},
      {"measurement": "binding", "setting": "[4]", "result": "binds"}
    ]}
  ]
}
